± gives the standard deviation of the averaged measurements.
System: ATP
Assay: switch fluorescence ratio, 500 uM ATP over buffer (Cy3 cluster intensity, sum of 5 cycles each) (fold (ratio)); higher = stronger signal-on switching upon ATP binding; sequences stand for … in TCGTCGGCAGCGTCAGATGTGTATAAGAGACAGTTTTTTTTTTTTTTTTTTTTTTTTT…TC
Conditions: aptamer strand: ATP DNA aptamer (quencher-CACCTGGGGGAGTATTGCGGAGGAAGG + anchor), 100 nM annealed; ATP concentration: 500 uM
Outline: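 Imaging in selection buffer was followed by imaging after 15 min with 500 uM ATP at 22 °C, for Cy3-labelled switching-strand clusters annealed to 100 nM quencher-labelled ATP aptamer on a modified Illumina MiSeq flow-cell. Five of these buffer/ATP cycles ran, separated by NaOH stripping and re-annealing. The fluorescence ratio per cluster is summed target-cycle over summed buffer-cycle Cy3 intensity, averaged per switch-domain sequence; clusters outside 100-1000 RFU were removed.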
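Further: ATP exposure 15 min at 22 °C before imaging.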

| Sequence | switch fluorescence ratio |
| --- | --- |
| TTAGGTAATA | 1 ± 0.022 |
| TTAGGTACGA | 1.05 ± 0.011 |
| TTAGGTAGTT | 0.971 ± 0.051 |
| TTAGGTATTA | 0.9912 ± 0.0036 |
| TTAGGTGGCG | 1.04 ± 0.018 |
| TTAGGTGGG | 0.989 ± 0.024 |
| TTAGGTTAAA | 1.06 ± 0.12 |
| TTAGGTTAGG | 0.9765 ± 0.0064 |
| TTAGGTTGGT | 1 ± 0.065 |
| TTAGTAAAGG | 1.01 ± 0.041 |
| TTAGTAGTTT | 0.976 ± 0.015 |
| TTAGTATCGG | 0.999 ± 0.052 |
| TTAGTATCTC | 1.03 ± 0.047 |
| TTAGTATTCT | 0.992 ± 0.031 |
| TTAGTCATGC | 1.09 ± 0.12 |
| TTAGTCCTTT | 1.03 ± 0.058 |
| TTAGTCGTCG | 1 ± 0.06 |
| TTAGTCTGGG | 1 ± 0.039 |
| TTAGTGAGCG | 1.03 ± 0.012 |
| TTAGTGCCGG | 0.994 ± 0.016 |
| TTAGTGGCTA | 1.019 ± 0.0087 |
| TTAGTGGGGT | 1.01 ± 0.028 |
| TTAGTTACGA | 1.04 ± 0.014 |
| TTAGTTTCTA | 0.99394 ± 0.00081 |
| TTAGTTTGAA | 0.968 ± 0.012 |
| TTATAAAGAT | 0.992 ± 0.035 |

| Sequence | switch fluorescence ratio |
| --- | --- |
| TTATAAATTT | 1.29 ± 0.45 |
| TTATAAGTGT | 0.963 ± 0.035 |
| TTATAATACT | 1.04 ± 0.019 |
| TTATAATATT | 1.03 ± 0.025 |
| TTATAATTTG | 1.02 ± 0.032 |
| TTATACATT | 1.02 ± 0.075 |
| TTATAGATAG | 0.999 ± 0.018 |
| TTATAGATTG | 1 ± 0.019 |
| TTATAGGCGG | 0.981 ± 0.016 |
| TTATAGGGTT | 0.991 ± 0.041 |
| TTATAGTTGG | 0.98 ± 0.023 |
| TTATATAGGT | 0.9738 ± 0.0054 |
| TTATATATTG | 0.969 ± 0.029 |
| TTATCAAAGC | 0.992 ± 0.033 |
| TTATCAAAGG | 0.986 ± 0.014 |
| TTATCAACAC | 1.09 ± 0.13 |
| TTATCAGCAC | 1.136 ± 0.0044 |
| TTATCATATA | 1.06 ± 0.057 |
| TTATCCAAAG | 0.966 ± 0.016 |
| TTATCCGGAT | 0.933 ± 0.11 |
| TTATCCTTTA | 1.02 ± 0.012 |
| TTATCGAATT | 1 ± 0.025 |
| TTATCGTCGG | 0.978 ± 0.04 |
| TTATCTCACT | 1.06 ± 0.014 |
| TTATCTGGGC | 0.9757 ± 0.0037 |
| TTATCTGTAA | 1.01 ± 0.051 |

| Sequence | switch fluorescence ratio |
| --- | --- |
| TTATCTTGGT | 1 ± 0.015 |
| TTATCTTGTT | 0.988 ± 0.03 |
| TTATGAAATT | 1.01 ± 0.04 |
| TTATGAGCGT | 1 ± 0.014 |
| TTATGAGTCG | 0.979 ± 0.032 |
| TTATGATAGC | 0.965 ± 0.044 |
| TTATGCTTCT | 1.01 ± 0.053 |
| TTATGGACGT | 1.01 ± 0.02 |
| TTATGGCCTA | 1.01 ± 0.017 |
| TTATGGCTAT | 0.991 ± 0.031 |
| TTATGGGTCT | 1 ± 0.036 |
| TTATGGGTTT | 1 ± 0.036 |
| TTATGGTAGC | 0.995 ± 0.015 |
| TTATGGTTAG | 1.008 ± 0.0092 |
| TTATGGTTAT | 1.03 ± 0.015 |
| TTATGGTTCG | 0.954 ± 0.013 |
| TTATGTAGTA | 1 ± 0.019 |
| TTATGTTTAG | 0.976 ± 0.045 |
| TTATTAAATA | 0.98 ± 0.016 |
| TTATTAAGTT | 1.01 ± 0.027 |
| TTATTAATTT | 1 ± 0.03 |
| TTATTACGGA | 1.03 ± 0.013 |
| TTATTATATG | 0.971 ± 0.022 |
| TTATTATCAG | 1.013 ± 0.0021 |
| TTATTCAGTC | 0.98 ± 0.046 |
| TTATTCATTT | 1.001 ± 0.01 |

| Sequence | switch fluorescence ratio |
| --- | --- |
| TTATTCCCGA | 0.9791 ± 0.0095 |
| TTATTCCCGT | 0.985 ± 0.064 |
| TTATTCCTAT | 1.02 ± 0.021 |
| TTATTCGGCT | 1.08 ± 0.05 |
| TTATTCTCGG | 1.04 ± 0.068 |
| TTATTGAAGC | 0.983 ± 0.028 |
| TTATTGAGGT | 0.981 ± 0.012 |
| TTATTGATGG | 0.99 ± 0.019 |
| TTATTGGACT | 1.02 ± 0.019 |
| TTATTGGAGG | 0.9918 ± 0.0077 |
| TTATTGGCTT | 0.9895 ± 0.0037 |
| TTATTGGGAT | 0.981 ± 0.033 |
| TTATTGGGGG | 0.982 ± 0.037 |
| TTATTGGGTT | 0.995 ± 0.017 |
| TTATTGGTA | 1.04 ± 0.016 |
| TTATTGTACT | 1.008 ± 0.0073 |
| TTATTGTTTA | 0.99 ± 0.029 |
| TTATTTAAGG | 1.01 ± 0.031 |
| TTATTTAGGC | 1.12 ± 0.055 |
| TTATTTCGCG | 0.986 ± 0.041 |
| TTATTTCGGG | 0.973 ± 0.013 |
| TTATTTGCAT | 0.994 ± 0.013 |
| TTATTTGGGT | 1 ± 0.021 |
| TTATTTGTAC | 1.052 ± 0.0021 |
| TTATTTGTCA | 0.989 ± 0.013 |
| TTATTTTAGT | 1 ± 0.017 |

| Sequence | switch fluorescence ratio |
| --- | --- |
| TTATTTTCGG | 0.994 ± 0.019 |
| TTATTTTTTT | 1 ± 0.033 |
| TTCAAAGATG | 0.9743 ± 0.0021 |
| TTCAAGGCGG | 1.01 ± 0.014 |
| TTCAAGGGCA | 1.01 ± 0.027 |
| TTCAAGGGTG | 1.11 ± 0.024 |
| TTCAAGTTTT | 1.02 ± 0.063 |
| TTCAATCCCG | 0.991 ± 0.069 |
| TTCAATGTCG | 1.05 ± 0.024 |
| TTCAATTCCG | 1.03 ± 0.092 |
| TTCAATTGGA | 1 ± 0.042 |
| TTCACCACTT | 1.01 ± 0.025 |
| TTCACCCGGT | 1.11 ± 0.12 |
| TTCACCCTTT | 1.02 ± 0.049 |
| TTCACGGCCT | 1.03 ± 0.018 |
| TTCACGGTTG | 1.04 ± 0.061 |
| TTCACGTTTT | 1.03 ± 0.087 |
| TTCAGAAAGA | 0.998 ± 0.023 |
| TTCAGACTAT | 1.01 ± 0.027 |
| TTCAGAGCTT | 1 ± 0.035 |
| TTCAGAGGAT | 1.02 ± 0.048 |
| TTCAGAGTTT | 0.978 ± 0.014 |
| TTCAGCGGGA | 0.992 ± 0.019 |
| TTCAGGAGGA | 1.03 ± 0.011 |
| TTCAGGGATG | 0.9822 ± 0.0028 |
| TTCAGGTCGT | 0.992 ± 0.052 |

| Sequence | switch fluorescence ratio |
| --- | --- |
| TTCAGGTTAG | 1.01 ± 0.027 |
| TTCAGGTTGG | 1.08 ± 0.082 |
| TTCAGTAGAG | 1.03 ± 0.024 |
| TTCAGTGATT | 1 ± 0.022 |
| TTCAGTGTGG | 0.971 ± 0.022 |
| TTCAGTTCGG | 0.9942 ± 0.0016 |
| TTCAGTTGCA | 1.01 ± 0.024 |
| TTCAGTTTGG | 1.01 ± 0.038 |
| TTCATACGGG | 1.03 ± 0.04 |
| TTCATAGTTC | 0.986 ± 0.013 |
| TTCATATTTT | 0.996 ± 0.015 |
| TTCATCGACT | 0.996 ± 0.047 |
| TTCATCTCGC | 1.1 ± 0.1 |
| TTCATGGTTT | 1.01 ± 0.028 |
| TTCATGTTGG | 0.998 ± 0.019 |
| TTCATTAGCT | 1 ± 0.025 |
| TTCATTTATT | 0.9904 ± 0.0055 |
| TTCATTTGAG | 0.995 ± 0.021 |
| TTCATTTTGC | 1.02 ± 0.015 |
| TTCCAAAATG | 1.005 ± 0.0081 |
| TTCCAAATCC | 1.01 ± 0.056 |
| TTCCACATCC | 1.07 ± 0.044 |
| TTCCACGCGG | 1.268 ± 0.0091 |
